Measurements: the MegaScale stability set (Tsuboyama et al. 2023)

B1: HEEH_KT_rd6_0007 (parent)
chain: SIEEEIKKAEEAKEKGKTFIHGDFVATTEELLDELLKRLRKKL

Variants of: B1
Assay: folding stability dG (cDNA display proteolysis); higher = more stable
Settings: PBS, room temperature

Variant	folding stability dG [kcal/mol]
K13E	0.58
D23F	1.48
D23H	1.02
D23R	0.773
D23M	1.26
D23P	0.958
D23S	1.36
D23V	1.38
D23C	1.91
D23Q	1.14
D23T	1.36
D23Y	1.3
D23G	1.16
D23L	1.31
D23A	1.26
D23K	1.06
D23E	1.16
D23I	1.52
D23W	1.64
D23N	1.4
G22K	0.822
G22F	1.14
G22S	0.873
G22N	0.979

Variant	folding stability dG [kcal/mol]
G22Y	1.23
G22E	1.12
G22V	1.09
G22L	1.2
G22Q	0.893
G22T	0.814
G22A	0.902
G22M	1.15
G22R	0.665
G22D	0.958
G22H	1.02
G22P	0.931
G22I	1.45
G22W	1.53
E14I	1.45
E14S	1.4
E14M	1.42
E14P	0.587
E14Q	1.42
E14T	1.3
E14F	1.31
E14Y	1.33
E14R	1.68
E14D	1.1

Variant	folding stability dG [kcal/mol]
E14K	1.56
E14A	1.73
E14N	1.21
E14W	1.37
E14H	1.21
E14L	1.58
E14V	1.25
E14G	1.19
K17W	1.84
K17H	1.44
K17S	1.18
K17G	1.48
K17C	2.53
K17Y	1.71
K17F	1.82
K17L	1.9
K17R	1.13
K17E	1.67
K17A	1.23
K17N	1.36
K17Q	1.47
K17P	0.793
K17I	1.59
K17M	1.66

Variant	folding stability dG [kcal/mol]
K17D	1.19
K17V	1.43
K17T	1.43
A26G	0.7
A26S	0.724
A26V	0.954
A26P	0.691
A26Y	1.6
A26H	0.502
A26C	1.24
A26E	0.506
A26I	1.27
A26Q	0.685
A26L	1.03
A26N	0.638
A26W	1.24
A26T	0.686
A26K	0.515
A26M	0.854
A26R	0.603
A26F	1.2
A26D	0.604
A9R	0.739
A9M	0.926

Variant	folding stability dG [kcal/mol]
A9T	0.679
A9V	1.68
A9S	0.634
A9P	0.556
A9Q	0.596
A9I	1.5
A9W	0.879
A9Y	0.662
A9H	0.516
A9N	0.608
A9K	0.705
A9L	1.44
H21I	1.03
H21D	0.707
H21R	0.838
H21T	0.971
H21V	1.04
H21G	0.81
H21W	1.78
H21P	0.759
H21N	0.77
H21E	0.742
H21Y	1.76
H21A	0.946

Variant	folding stability dG [kcal/mol]
H21L	1.29
H21M	1.08
H21F	1.52
H21S	1.39
H21K	0.812
H21Q	1.03
T27D	2.16
T27C	1.76
T27E	1.24
T27A	1.27
G16E	0.895
G16Y	1.12
G16R	0.873
G16V	0.73
G16P	0.298
G16T	0.757
G16A	0.667
G16I	1.03
G16M	0.701
G16K	1.3
G16S	0.957
G16Q	0.935
G16L	1.22
G16F	1.2

Variant	folding stability dG [kcal/mol]
G16H	1.25
G16W	1.3
G16N	1.08
G16D	0.785
I20Y	1.02
I20W	1.13
I20T	1.25
I20K	0.994
I20H	0.961
I20V	1.27
I20N	0.801
I20D	0.774
I20E	0.927
I20M	0.979
I20A	1.03
I20S	0.913
I20C	2.04
I20R	0.918
I20G	0.637
I20L	0.842
I20Q	1.27
I20P	0.732
I20F	0.891
